Source: IntAct's records for PubMed 12458226

What was measured:
grip1_mouse Grip1 = grip1_mouse Grip1 (UniProt Q925T6)
grip2_rat Grip2 = grip2_rat Grip2 (UniProt Q9WTW1)
Sequence of grip2_rat Grip2 (Q9WTW1 whole entry): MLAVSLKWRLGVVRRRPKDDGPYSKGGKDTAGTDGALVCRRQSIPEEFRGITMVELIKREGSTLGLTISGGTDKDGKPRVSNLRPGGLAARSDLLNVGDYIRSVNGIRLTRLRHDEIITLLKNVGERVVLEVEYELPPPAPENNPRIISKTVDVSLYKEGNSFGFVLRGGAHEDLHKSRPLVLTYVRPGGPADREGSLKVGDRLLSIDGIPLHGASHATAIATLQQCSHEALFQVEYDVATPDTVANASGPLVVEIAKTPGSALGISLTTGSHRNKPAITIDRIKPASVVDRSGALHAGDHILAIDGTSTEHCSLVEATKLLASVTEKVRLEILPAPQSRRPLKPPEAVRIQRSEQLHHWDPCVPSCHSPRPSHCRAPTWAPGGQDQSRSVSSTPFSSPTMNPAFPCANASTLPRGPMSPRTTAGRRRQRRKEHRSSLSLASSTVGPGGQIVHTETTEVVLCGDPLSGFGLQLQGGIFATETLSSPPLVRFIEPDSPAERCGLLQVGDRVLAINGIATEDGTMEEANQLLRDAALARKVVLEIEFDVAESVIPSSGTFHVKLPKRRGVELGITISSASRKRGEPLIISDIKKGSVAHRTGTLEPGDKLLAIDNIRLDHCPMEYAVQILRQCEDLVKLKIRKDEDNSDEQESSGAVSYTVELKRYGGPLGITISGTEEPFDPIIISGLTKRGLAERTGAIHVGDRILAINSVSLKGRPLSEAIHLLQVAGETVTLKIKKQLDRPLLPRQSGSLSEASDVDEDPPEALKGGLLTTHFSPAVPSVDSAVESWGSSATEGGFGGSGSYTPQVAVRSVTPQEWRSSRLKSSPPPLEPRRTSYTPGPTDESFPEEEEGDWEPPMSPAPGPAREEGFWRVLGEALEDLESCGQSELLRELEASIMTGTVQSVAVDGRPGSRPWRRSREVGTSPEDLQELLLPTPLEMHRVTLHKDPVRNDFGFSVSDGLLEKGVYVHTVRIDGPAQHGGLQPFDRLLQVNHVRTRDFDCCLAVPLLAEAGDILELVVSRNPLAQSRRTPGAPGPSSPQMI

Sequence of grip1_mouse Grip1 (Q925T6 whole entry): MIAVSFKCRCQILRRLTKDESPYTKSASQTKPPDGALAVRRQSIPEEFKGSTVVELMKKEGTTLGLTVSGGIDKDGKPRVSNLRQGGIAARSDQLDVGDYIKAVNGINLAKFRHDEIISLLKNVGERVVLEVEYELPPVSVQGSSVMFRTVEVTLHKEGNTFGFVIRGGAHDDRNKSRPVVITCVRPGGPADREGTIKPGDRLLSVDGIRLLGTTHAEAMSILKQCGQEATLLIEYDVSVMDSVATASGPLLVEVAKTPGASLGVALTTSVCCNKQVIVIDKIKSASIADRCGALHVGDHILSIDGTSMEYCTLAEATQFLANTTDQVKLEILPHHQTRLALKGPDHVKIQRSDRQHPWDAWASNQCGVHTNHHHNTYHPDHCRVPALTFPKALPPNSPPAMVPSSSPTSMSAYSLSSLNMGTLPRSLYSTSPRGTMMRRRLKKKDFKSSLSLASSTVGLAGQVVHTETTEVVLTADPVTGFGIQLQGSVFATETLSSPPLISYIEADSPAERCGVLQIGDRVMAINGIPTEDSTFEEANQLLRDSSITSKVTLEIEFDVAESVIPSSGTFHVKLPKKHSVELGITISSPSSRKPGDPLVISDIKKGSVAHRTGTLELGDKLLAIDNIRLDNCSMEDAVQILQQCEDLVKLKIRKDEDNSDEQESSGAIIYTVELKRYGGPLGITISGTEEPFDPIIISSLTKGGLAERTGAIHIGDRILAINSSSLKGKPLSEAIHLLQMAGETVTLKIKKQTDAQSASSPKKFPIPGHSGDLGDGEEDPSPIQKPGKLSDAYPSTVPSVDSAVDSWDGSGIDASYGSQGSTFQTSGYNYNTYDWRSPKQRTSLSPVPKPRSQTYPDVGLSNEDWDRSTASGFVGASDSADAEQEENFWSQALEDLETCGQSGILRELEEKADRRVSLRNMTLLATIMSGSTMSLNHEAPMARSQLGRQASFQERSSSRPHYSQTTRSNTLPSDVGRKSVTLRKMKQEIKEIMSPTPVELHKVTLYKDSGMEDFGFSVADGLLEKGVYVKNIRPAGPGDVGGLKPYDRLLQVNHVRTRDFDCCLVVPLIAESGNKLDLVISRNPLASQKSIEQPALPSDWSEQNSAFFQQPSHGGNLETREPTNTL

Substance | effect of a mutation on the interaction (grip1_mouse Grip1) | effect of a mutation on the interaction (grip2_rat Grip2)
Chondroitin sulfate proteoglycan 4 (Mus musculus), Q8VHY0 V2327G | disrupting interaction | disrupting interaction
Chondroitin sulfate proteoglycan 4 (Mus musculus), Q8VHY0 W2326G | disrupting interaction | disrupting interaction
Chondroitin sulfate proteoglycan 4 (Mus musculus), Q8VHY0 Y2325G | disrupting interaction | disrupting interaction
